Experimental data: article PMC8456102

Biological target: native Tyr-p3 (group 3 allergen of Tyrophagus putrescentiae) (Tyrophagus putrescentiae) (UniProt C6ZDB5)
Chain of UniProt C6ZDB5 (C6ZDB5 34-285): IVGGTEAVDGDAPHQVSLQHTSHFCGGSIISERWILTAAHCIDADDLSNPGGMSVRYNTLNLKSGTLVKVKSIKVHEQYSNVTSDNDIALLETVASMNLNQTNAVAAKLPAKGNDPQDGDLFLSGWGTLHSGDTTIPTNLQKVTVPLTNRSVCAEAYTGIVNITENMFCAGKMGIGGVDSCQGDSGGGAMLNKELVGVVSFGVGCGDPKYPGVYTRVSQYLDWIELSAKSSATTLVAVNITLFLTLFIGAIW

soybean trypsin inhibitor (from UniProt P01070 25-205) (natural protein)
inhibition of the protease activity of nTyr-p3 on the substrate TAME (OD 405 nm; sample pretreated with 10 mM inhibitor for 60 min at 25°C): 88%
